Assay [1] has as its target NiV (Bangladesh strain) L (full-length, with C-terminal triple strep tag) (Nipah virus (Bangladesh strain)) (UniProt Q997F0). Nature of the assay: mass photometry.
Assay [2] has the same target. Nature of the assay: mass photometry. The source holds these as a separate data set.

Like-named read-outs stand apart in the source and are kept apart here.

For “NiV (Bangladesh strain) P (full-length, with N-terminal polyhistidine tag) (from UniProt Q4VCQ1 1-709) (natural protein)”, the stoichiometry N is 3 in assay [1] and 4 in assay [2].

One may read the stoichiometry N as a count of units in the complex or per binding partner.

(Values after article PMC11813165.)
